Experiment [1] deals with OTUB1 wild-type (human (by the printed UniProt accession), UniProt Q96FW1 1-271). The experiment is described as follows: ITC. For orientation: ITC needs no label: the signal is the heat of the interaction.
In experiment [2] the target is OTUB1 (C91S) (human (by the printed UniProt accession), UniProt Q96FW1 1-271, C91S). The experiment is described as follows: ITC.
OTUB1 (C91S), sequence (Q96FW1 whole entry C91S): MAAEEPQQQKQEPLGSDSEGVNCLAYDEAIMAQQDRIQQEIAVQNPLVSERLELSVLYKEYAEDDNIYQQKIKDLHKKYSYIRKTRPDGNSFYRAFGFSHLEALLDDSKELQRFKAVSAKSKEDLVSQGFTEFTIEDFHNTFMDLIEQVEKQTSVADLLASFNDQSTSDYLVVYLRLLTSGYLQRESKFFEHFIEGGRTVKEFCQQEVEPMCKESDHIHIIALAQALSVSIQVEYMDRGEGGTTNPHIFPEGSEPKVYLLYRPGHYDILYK

OTUB1 wild-type, sequence (Q96FW1 whole entry): as the sequence (Q96FW1 whole entry C91S) above, with S91C counted along it

B1: UBE2D1 (enzyme)
chain: not shown
As for B1, the binding result in experiment [1] and in experiment [2] was “binds” each time.

B2: UBE2E1 (enzyme, human, UniProt P51965 1-193, looked up)
chain: MSDDDSRASTSSSSSSSSNQQTEKETNTPKKKESKVSMSKNSKLLSTSAKRIQKELADITLDPPPNCSAGPKGDNIYEWRSTILGPPGSVYEGGVFFLDITFTPEYPFKPPKVTFRTRIYHCNINSQGVICLDILKDNWSPALTISKVLLSICSLLTDCNPADPLVGSIATQYMTNRAEHDRMARQWTKRYAT
In the case of B2, the binding result in experiment [2] is reported as “binds”.

B3: UBE2N (enzyme, human, UniProt P61088 1-152, looked up)
chain: MAGLPRRIIKETQRLLAEPVPGIKAEPDESNARYFHVVIAGPQDSPFEGGTFKLELFLPEEYPMAAPKVRFMTKIYHPNVDKLGRICLDILKDKWSPALQIRTVLLSIQALLSAPNPDDPLANDVAEQWKTNEAQAIETARAWTRLYAMNNI
For the molecule B3, in experiment [2], binding was characterised by a dissociation constant (Kd) of 8.1 µM.

For the origin of these results see publication PMC7761795 (Biochemistry, 2020).
